From patent publication US20150119341A1 (PALATIN TECHNOLOGIES, published 2015) come the findings set out here.

Where two headings read alike, the source gives them in different places. [ ]: non-standard residue; d: D form. Nle = CCCC[C@H](N)C(=O)O

Test [1] concerns the target T1, recombinant human melanocortin-1 receptor (hMCR-1a) in membrane homogenates of HEK-293 cells (human, UniProt Q01726 1-317).
T1 construct: whole, on cells; Used as membrane homogenates, not intact cells; also called hMCR-la; MC-1
The experiment in a line: competitive inhibition of [I125]-NDP-alpha-MSH, hMCR-1 HEK-293 membranes. As to the method:
(§1) A competitive inhibition binding assay was performed using membrane homogenates prepared from HEK-293 cells that express recombinant hMCR-la or hMCR-4 (in each instance where the h prefix refers to human), or alternatively membrane homogenates from B16-F10 mouse melanoma cells containing endogenous murine MCR-1. In the examples that follow, all MCR-1 and MCR-4 values are for human recombinant receptors, unless otherwise noted. Assays were performed in 96 well polypropylene round-bottom plates (VWR catalog number 12777-030).
(§2) Membrane homogenates were incubated with 0.1 nM [I¹²⁵]-NDP-α-MSH (Perkin Elmer) and increasing concentrations of test peptides of the present invention in buffer containing 25 mM HEPES buffer (pH 7.5) with 100 mM NaCl, 2 mM CaCl₂, 2 mM MgCl₂, 0.3 mM 1,10-phenanthroline, and 0.2% bovine serum albumin. After incubation for 90 minutes at 37° C., the assay mixture was filtered onto GF/B Unifilter plates (Perkin-Elmer catalog number 6005177) and washed with 3 mL of ice-cold buffer per well. Filters were air dried and 35 μL of scintillation cocktail added to each well. Plates were counted in a Microbeta counter for bound radioactivity. […] Maximal specific binding (100%) was defined as the difference in radioactivity (cpm) bound to cell membranes in the absence and presence of 1 μM NDP-α-MSH. Each assay was conducted in duplicate and the actual mean values are described, with results less than 0% reported as 0%. Ki values for peptides of the present invention were determined using Graph-Pad PRISM® curve-fitting software.

Test [2] concerns the target T2, recombinant human melanocortin-4 receptor (hMCR-4) in membrane homogenates of HEK-293 cells (human, UniProt P32245 1-332).
T2 construct: whole, on cells; Used as membrane homogenates, not intact cells; also called MC-4
The experiment in a line: competitive inhibition of [I125]-NDP-alpha-MSH, hMCR-4 HEK-293 membranes. As to the method:
as §1, §2

Test [3] has as its target T3, human melanocortin-1 receptor (hMCR-1) expressed by the human melanoma cell line HBL (human, UniProt Q01726 1-317). The experiment in a line: cell-based or functional assay.
The target in test [4] is T3, human melanocortin-1 receptor (hMCR-1) …. The experiment in a line: cell-based or functional assay. This is another data set of the same source.
Test [5] has the same target. The experiment in a line: cell-based or functional assay. The source holds these as a separate data set.
The target is the same in test [6]. The experiment in a line: cell-based or functional assay. The source holds these as a separate data set.
Test [7] shares this target. The experiment in a line: cell-based or functional assay. This is another data set of the same source.
For test [8] the target is unchanged. The experiment in a line: cell-based or functional assay. The source holds these as a separate data set.
Test [9] has the same target. The experiment in a line: cell-based or functional assay. This is another data set of the same source.
Test [10] has the same target. The experiment in a line: cell-based or functional assay. The source holds these as a separate data set.
The target is the same in test [11]. The experiment in a line: cell-based or functional assay. This is another data set of the same source.
Test [12] shares this target. The experiment in a line: cell-based or functional assay. The source holds these as a separate data set.
For test [13] the target is unchanged. The experiment in a line: cell-based or functional assay. The source holds these as a separate data set.
Test [14] shares this target. The experiment in a line: cell-based or functional assay. The source holds these as a separate data set.
Test [15] shares this target. The experiment in a line: cell-based or functional assay. The source holds these as a separate data set.

T1 sequence (Q01726 whole entry): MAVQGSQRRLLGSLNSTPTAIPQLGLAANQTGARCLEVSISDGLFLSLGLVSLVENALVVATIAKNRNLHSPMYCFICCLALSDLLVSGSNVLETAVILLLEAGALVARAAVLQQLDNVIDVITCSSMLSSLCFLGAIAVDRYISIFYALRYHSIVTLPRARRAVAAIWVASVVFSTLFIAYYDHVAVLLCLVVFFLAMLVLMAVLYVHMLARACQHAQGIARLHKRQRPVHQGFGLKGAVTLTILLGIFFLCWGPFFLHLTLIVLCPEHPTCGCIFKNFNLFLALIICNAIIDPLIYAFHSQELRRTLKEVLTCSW
T3 sequence (Q01726 whole entry): as above
T2 sequence (P32245 whole entry): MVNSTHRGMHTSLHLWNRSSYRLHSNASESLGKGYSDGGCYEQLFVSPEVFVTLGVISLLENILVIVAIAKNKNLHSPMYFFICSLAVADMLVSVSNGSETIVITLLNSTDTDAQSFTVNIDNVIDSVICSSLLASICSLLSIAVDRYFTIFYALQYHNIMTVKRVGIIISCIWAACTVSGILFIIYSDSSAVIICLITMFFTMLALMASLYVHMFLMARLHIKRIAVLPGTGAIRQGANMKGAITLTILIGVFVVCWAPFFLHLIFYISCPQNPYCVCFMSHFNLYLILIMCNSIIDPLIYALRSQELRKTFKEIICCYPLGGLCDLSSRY

B1: Ac-Nle-His-Phe-Arg-Ala-Trp-NH2 (peptide)
peptide: Ac-[Nle]HFRAW-NH2
SMILES: CCCC[C@H](NC(C)=O)C(=O)N[C@@H](Cc1c[nH]cn1)C(=O)N[C@@H](Cc1ccccc1)C(=O)N[C@@H](CCCNC(=N)N)C(=O)N[C@@H](C)C(=O)N[C@@H](Cc1c[nH]c2ccccc12)C(N)=O
notes: synthetic linear peptide
For orientation: Ki means a dissociation constant, usually derived from enzyme kinetics or from competition with a known ligand. Regarding B1, the figures for the Ki in test [1] and in [2] were 5920 nM and 10 µM, respectively.

B2: Ac-Nle-Ala-His-D-Phe-Arg-D-Pro-Trp-NH2 (peptide)
peptide: Ac-[Nle]AH[dF]R[dP]W-NH2
SMILES: CCCC[C@H](NC(C)=O)C(=O)N[C@@H](C)C(=O)N[C@@H](Cc1c[nH]cn1)C(=O)N[C@H](Cc1ccccc1)C(=O)N[C@@H](CCCNC(=N)N)C(=O)N1CCC[C@@H]1C(=O)N[C@@H](Cc1c[nH]c2ccccc12)C(N)=O
Consider B2, for which the “MC-1 EC50 (average; cAMP HBL)” value in [3] was 1 nM.

B3: Ac-Nle-Ala-His-D-Phe-Arg-Ala-D-Trp-NH2 (peptide)
peptide: Ac-[Nle]AH[dF]RA[dW]-NH2
SMILES: CCCC[C@H](NC(C)=O)C(=O)N[C@@H](C)C(=O)N[C@@H](Cc1c[nH]cn1)C(=O)N[C@H](Cc1ccccc1)C(=O)N[C@@H](CCCNC(=N)N)C(=O)N[C@@H](C)C(=O)N[C@H](Cc1c[nH]c2ccccc12)C(N)=O
For B3, the “MC-1 EC50 (average; cAMP HBL)” value in test [4] is 0.6 nM.

B4: Ac-Nle-Ala-D-Phe-Arg-Ala-Trp-NH2 (peptide)
peptide: Ac-[Nle]A[dF]RAW-NH2
SMILES: CCCC[C@H](NC(C)=O)C(=O)N[C@@H](C)C(=O)N[C@H](Cc1ccccc1)C(=O)N[C@@H](CCCNC(=N)N)C(=O)N[C@@H](C)C(=O)N[C@@H](Cc1c[nH]c2ccccc12)C(N)=O
notes: synthetic linear peptide
B4: the Ki came to 6680 nM in test [1] and 10 µM in test [2].

B5: Ac-Nle-D-Phe-Arg-Ala-Trp-NH2 (peptide)
peptide: Ac-[Nle][dF]RAW-NH2
SMILES: CCCC[C@H](NC(C)=O)C(=O)N[C@H](Cc1ccccc1)C(=O)N[C@@H](CCCNC(=N)N)C(=O)N[C@@H](C)C(=O)N[C@@H](Cc1c[nH]c2ccccc12)C(N)=O
Consider B5, for which the “MC-1 EC50 (average; cAMP HBL)” value in test [5] is 402 nM.

B6: Ac-Nle-Ala-His-D-Phe-Arg-Pro-D-Trp-NH2 (peptide)
peptide: Ac-[Nle]AH[dF]RP[dW]-NH2
SMILES: CCCC[C@H](NC(C)=O)C(=O)N[C@@H](C)C(=O)N[C@@H](Cc1c[nH]cn1)C(=O)N[C@H](Cc1ccccc1)C(=O)N[C@@H](CCCNC(=N)N)C(=O)N1CCC[C@H]1C(=O)N[C@H](Cc1c[nH]c2ccccc12)C(N)=O
Turning to B6, the “MC-1 EC50 (average; cAMP HBL)” value in test [6] was 0.17 nM.

B7: Ac-Nle-Ala-His-Phe-Arg-Ala-Trp-NH2 (peptide)
peptide: Ac-[Nle]AHFRAW-NH2
SMILES: CCCC[C@H](NC(C)=O)C(=O)N[C@@H](C)C(=O)N[C@@H](Cc1c[nH]cn1)C(=O)N[C@@H](Cc1ccccc1)C(=O)N[C@@H](CCCNC(=N)N)C(=O)N[C@@H](C)C(=O)N[C@@H](Cc1c[nH]c2ccccc12)C(N)=O
notes: synthetic linear peptide
For B7, the figures for the Ki in test [1] and in test [2] were 85 nM and 10 µM, respectively. Also, the “MC-1 EC50 (average; cAMP HBL)” value in [7] is 4 nM.

B8: Ac-Nle-Ala-His-Phe-Arg-Gly-Trp-NH2 (peptide)
peptide: Ac-[Nle]AHFRGW-NH2
SMILES: CCCC[C@H](NC(C)=O)C(=O)N[C@@H](C)C(=O)N[C@@H](Cc1c[nH]cn1)C(=O)N[C@@H](Cc1ccccc1)C(=O)N[C@@H](CCCNC(=N)N)C(=O)NCC(=O)N[C@@H](Cc1c[nH]c2ccccc12)C(N)=O
notes: synthetic linear peptide
Turning to B8, the results for the inhibitory constant (Ki) in test [1] and in [2] were 340 nM and 10 µM, respectively. The “MC-1 EC50 (average; cAMP HBL)” value in test [8] stood at 21 nM.

B9: Ac-Nle-Ala-His-D-Phe-Arg-D-Pro-D-Trp-NH2 (peptide)
peptide: Ac-[Nle]AH[dF]R[dP][dW]-NH2
SMILES: CCCC[C@H](NC(C)=O)C(=O)N[C@@H](C)C(=O)N[C@@H](Cc1c[nH]cn1)C(=O)N[C@H](Cc1ccccc1)C(=O)N[C@@H](CCCNC(=N)N)C(=O)N1CCC[C@@H]1C(=O)N[C@H](Cc1c[nH]c2ccccc12)C(N)=O
On to B9, for which the “MC-1 EC50 (average; cAMP HBL)” value in [9] came out at 2 nM.

B10: Ac-Nle-Ala-His-D-Phe-Arg-Ala-Trp-NH2 (peptide)
peptide: Ac-[Nle]AH[dF]RAW-NH2
SMILES: CCCC[C@H](NC(C)=O)C(=O)N[C@@H](C)C(=O)N[C@@H](Cc1c[nH]cn1)C(=O)N[C@H](Cc1ccccc1)C(=O)N[C@@H](CCCNC(=N)N)C(=O)N[C@@H](C)C(=O)N[C@@H](Cc1c[nH]c2ccccc12)C(N)=O
notes: synthetic linear peptide
As to B10, the Ki was determined as 0.2 nM in test [1] and 1.74 µM in test [2]. Moreover, in test [10], the “MC-1 EC50 (average; cAMP HBL)” value stood at 0.02 nM.

B11: Ac-Nle-Ala-His-D-Phe-Ala-Ala-Trp-NH2 (peptide)
peptide: Ac-[Nle]AH[dF]AAW-NH2
SMILES: CCCC[C@H](NC(C)=O)C(=O)N[C@@H](C)C(=O)N[C@@H](Cc1c[nH]cn1)C(=O)N[C@H](Cc1ccccc1)C(=O)N[C@@H](C)C(=O)N[C@@H](C)C(=O)N[C@@H](Cc1c[nH]c2ccccc12)C(N)=O
notes: synthetic linear peptide
B11: the Ki is 43 nM in test [1] and 10 µM in [2]. In test [11], the “MC-1 EC50 (average; cAMP HBL)” value was found to be 4 nM.

B12: Ac-Nle-Ala-His-D-Phe-Arg-Pro-Trp-NH2 (peptide)
peptide: Ac-[Nle]AH[dF]RPW-NH2
SMILES: CCCC[C@H](NC(C)=O)C(=O)N[C@@H](C)C(=O)N[C@@H](Cc1c[nH]cn1)C(=O)N[C@H](Cc1ccccc1)C(=O)N[C@@H](CCCNC(=N)N)C(=O)N1CCC[C@H]1C(=O)N[C@@H](Cc1c[nH]c2ccccc12)C(N)=O
notes: synthetic linear peptide
Turning to B12, the Ki in test [1] is 185 nM; in test [2] it was 0.02 µM. In test [12], the “MC-1 EC50 (average; cAMP HBL)” value stood at 9 nM.

B13: Ac-Nle-Ala-Arg-D-Phe-Arg-Ala-Trp-NH2 (peptide)
peptide: Ac-[Nle]AR[dF]RAW-NH2
SMILES: CCCC[C@H](NC(C)=O)C(=O)N[C@@H](C)C(=O)N[C@@H](CCCNC(=N)N)C(=O)N[C@H](Cc1ccccc1)C(=O)N[C@@H](CCCNC(=N)N)C(=O)N[C@@H](C)C(=O)N[C@@H](Cc1c[nH]c2ccccc12)C(N)=O
notes: synthetic linear peptide
On to B13, for which the figures for the Ki in [1] and in [2] were 0.45 nM and 1.18 µM, respectively. In addition, the “MC-1 EC50 (average; cAMP HBL)” value in test [13] worked out at 0.04 nM.

B14: Ac-Nle-Ala-Ala-D-Phe-Arg-Ala-Trp-NH2 (peptide)
peptide: Ac-[Nle]AA[dF]RAW-NH2
SMILES: CCCC[C@H](NC(C)=O)C(=O)N[C@@H](C)C(=O)N[C@@H](C)C(=O)N[C@H](Cc1ccccc1)C(=O)N[C@@H](CCCNC(=N)N)C(=O)N[C@@H](C)C(=O)N[C@@H](Cc1c[nH]c2ccccc12)C(N)=O
notes: synthetic linear peptide
On to B14, for which the Ki is 195 nM in [1] and 10 µM in test [2]. In addition, in test [14], the “MC-1 EC50 (average; cAMP HBL)” value is 8 nM.

B15: Ac-Nle-Ala-His-D-Phe-Arg-Ala-Trp-OH (peptide)
peptide: Ac-[Nle]AH[dF]RAW-OH
SMILES: CCCC[C@H](NC(C)=O)C(=O)N[C@@H](C)C(=O)N[C@@H](Cc1c[nH]cn1)C(=O)N[C@H](Cc1ccccc1)C(=O)N[C@@H](CCCNC(=N)N)C(=O)N[C@@H](C)C(=O)N[C@@H](Cc1c[nH]c2ccccc12)C(=O)O
notes: synthetic linear peptide
Consider B15, for which the Ki in test [1] is 6 nM; in test [2], 7.42 µM. For the same molecule, in test [15], the “MC-1 EC50 (average; cAMP HBL)” value was 0.4 nM.
